Columns and labels:
Experiment in all cases: crystal structure
[1] = target: fiber protein derived from HAdV-35 (fiber of Ad35F) (human adenovirus 35 (HAdV-35))
crystal structure = target: the molecule itself
[2] = target: hexon (major capsid protein) of the HAdV-5 vector Ad35F (human adenovirus 5 (HAdV-5), UniProt P04133 1-952)

Which stoichiometry N [1] does the source give for “fiber protein derived from HAdV-35 (fiber of Ad35F) (natural protein)” here?
Its stoichiometry N is 3.

B1: penton base (PB) of the HAdV-5 vector Ad35F (natural protein)
chain: MRRAAMYEEGPPPSYESVVSAAPVAAALGSPFDAPLDPPFVPPRYLRPTGGRNSIRYSELAPLFDTTRVYLVDNKSTDVASLNYQNDHSNFLTTVIQNNDYSPGEASTQTINLDDRSHWGGDLKTILHTNMPNVNEFMFTNKFKARVMVSRLPTKDNQVELKYEWVEFTLPEGNYSETMTIDLMNNAIVEHYLKVGRQNGVLESDIGVKFDTRNFRLGFDPVTGLVMPGVYTNEAFHPDIILLPGCGVDFTHSRLSNLLGIRKRQPFQEGFRITYDDLEGGNIPALLDVDAYQASLKDDTEQGGGGAGGSNSSGSGAEENSNAAAAAMQPVEDMNDHAIRGDTFATRAEEKRAEAEAAAEAAAPAAQPEVEKPQKKPVIKPLTEDSKKRSYNLISNDSTFTQYRSWYLAYNYGDPQTGIRSWTLLCTPDVTCGSEQVYWSLPDMMQDPVTFRSTRQISNFPVVGAELLPVHSKSFYNDQAVYSQLIRQFTSLTHVFNRFPENQILARPPAPTITTVSENVPALTDHGTLPLRNSIGGVQRVTITDARRRTCPYVYKALGIVSPRVLSSRTF
How did the “stoichiometry N” value (crystal structure) turn out when B1 was run?
The value was 5.

B2: protein IX of the HAdV-5 vector Ad35F (natural protein)
chain: MSTNSFDGSIVSSYLTTRMPPWAGVRQNVMGSSIDGRPVLPANSTTLTYETVSGTPLETAASAAASAAAATARGIVTDFAFLSPLASSAASRSSARDDKLTALLAQLDSLTRELNVVSQQLLDLRQQVSALKASSPPNAV
Does B2 bind [2]?
Result: binds

From article PMC2929978 (Science (New York, N.Y.), 2010)
